Experimental data reported in publication PMC3818214, “Novel Disulfide Bond-Mediated Dimerization of the CARD Domain Was Revealed by the Crystal Structure of CARMA1 CARD” (PLoS ONE, 2013).

Target: the molecule itself
Experiment: SEC-MALS; Superdex 200 HR 10/30, 20 mM Tris HCl, 150 mM NaCl, without DTT; mini-DAWN EOS and Optilab DSP detectors

B1: mouse CARMA1 CARD (amino acids 14-109) with C-terminal His-tag (domain or fragment, UniProt Q8CIS0 14-109, looked up)
chain: TLKDEEEALWDNVECNRHMLSRYINPAKLTPYLRQCKVIDEQDEDEVLNAPMLPSKINRAGRLLDILHTKGQRGYVVFLESLEFYYPELYKLVTGK
notes: CARMA1 (CARD11), mouse, CARD domain, amino acids 14-109; the solution experiments used the plain protein; Model built from residue 22 to 108, loop 64-70 missing; Vector pOKD (home-made); also called CARD11 CARD; not shown: His-tag, C-terminal, kept
- stoichiometry N: 2
